Laboratory results published in publication PMC9482650, “Quantitative fragmentomics allow affinity mapping of interactomes” (Nature Communications, 2022).

T1: MPP6, Q9NZW5
T1 sequence (Q9NZW5 125-219, limits assumed, looked up): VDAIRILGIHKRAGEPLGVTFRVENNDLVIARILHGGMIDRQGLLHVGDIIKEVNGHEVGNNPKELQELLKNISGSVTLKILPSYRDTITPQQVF

T2: ARHGAP21, Q5T5U3
T2 sequence (Q5T5U3 45-169, limits assumed, looked up): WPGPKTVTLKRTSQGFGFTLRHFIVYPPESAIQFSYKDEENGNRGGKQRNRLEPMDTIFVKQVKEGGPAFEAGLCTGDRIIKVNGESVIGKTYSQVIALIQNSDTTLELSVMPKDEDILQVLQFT

T3: SYNJ2BP, P57105
T3 sequence (P57105 8-110, limits assumed, looked up): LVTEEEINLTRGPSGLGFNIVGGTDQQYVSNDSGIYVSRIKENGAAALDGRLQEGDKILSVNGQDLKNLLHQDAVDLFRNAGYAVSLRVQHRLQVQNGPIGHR

T4: FRMPD1, Q5SYB0
T4 sequence (Q5SYB0 52-145, limits assumed, looked up): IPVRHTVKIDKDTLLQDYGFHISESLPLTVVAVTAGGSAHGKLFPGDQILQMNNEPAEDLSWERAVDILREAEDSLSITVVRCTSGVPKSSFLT

T5: PDZRN3_1, Q9UPQ7
T5 sequence (Q9UPQ7 244-349, limits assumed, looked up): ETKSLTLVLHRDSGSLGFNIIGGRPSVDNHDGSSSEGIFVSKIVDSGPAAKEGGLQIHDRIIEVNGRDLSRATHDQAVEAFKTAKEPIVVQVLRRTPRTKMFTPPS

T6: GRIP1_7, Q9Y3R0
T6 sequence (Q9Y3R0 999-1096, limits assumed, looked up): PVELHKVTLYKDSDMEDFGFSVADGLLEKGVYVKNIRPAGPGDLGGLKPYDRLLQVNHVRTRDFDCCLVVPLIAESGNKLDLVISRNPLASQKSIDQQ

T7: PCLO, Q9Y6V0
T7 sequence (Q9Y6V0 4491-4600, limits assumed, looked up): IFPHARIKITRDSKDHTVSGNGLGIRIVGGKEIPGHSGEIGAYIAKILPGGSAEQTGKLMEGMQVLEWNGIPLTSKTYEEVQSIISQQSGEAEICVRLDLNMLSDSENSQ

T8: LIN7A, O14910
T8 sequence (O14910 103-200, limits assumed, looked up): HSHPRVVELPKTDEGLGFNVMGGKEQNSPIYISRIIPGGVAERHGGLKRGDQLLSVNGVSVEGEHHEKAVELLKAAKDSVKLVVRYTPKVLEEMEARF

T9: GRIP1_5, Q9Y3R0
T9 sequence (Q9Y3R0 568-668, limits assumed, looked up): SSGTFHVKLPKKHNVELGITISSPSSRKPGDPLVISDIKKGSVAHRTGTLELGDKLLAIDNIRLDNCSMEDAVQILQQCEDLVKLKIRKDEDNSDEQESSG

T10: MPP7, Q5T2T1
T10 sequence (Q5T2T1 134-230, limits assumed, looked up): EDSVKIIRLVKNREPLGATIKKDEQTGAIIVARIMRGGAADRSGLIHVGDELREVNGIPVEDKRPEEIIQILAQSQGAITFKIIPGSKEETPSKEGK

T11: PTPN13_1, Q12923
T11 sequence (Q12923 1088-1188, limits assumed, looked up): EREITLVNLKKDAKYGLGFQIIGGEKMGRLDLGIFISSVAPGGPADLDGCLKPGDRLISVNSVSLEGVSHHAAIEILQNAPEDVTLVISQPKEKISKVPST


Legend:
Assay in all cases: holdup assay
Design in all cases: key: below the threshold = too weak to quantify, mostly under pKd 3.1 to 4
Settings in all cases: plain residues with an end cap or a label only (N-terminal biotin on a linker: ado-ado)
[1] = target: T1, MPP6, Q9NZW5
[2] = target: Inadl_4, Q8NI35
[3] = target: FRMPD4, Q14CM0
[4] = target: Inadl_3, Q8NI35
[5] = target: GRASP, Q7Z6J2
[6] = target: MAGI2_5, Q86UL8
[7] = target: T2, ARHGAP21, Q5T5U3
[8] = target: MAGI1_2, Q96QZ7
[9] = target: T3, SYNJ2BP, P57105
[10] = target: T4, FRMPD1, Q5SYB0
[11] = target: MAST2, Q6P0Q8
[12] = target: NHERF4_2, Q86UT5
[13] = target: MAGI1_1, Q96QZ7
[14] = target: GRIP2_6, Q9C0E4
[15] = target: T5, PDZRN3_1, Q9UPQ7
[16] = target: GRIP2_3, Q9C0E4
[17] = target: SCRIB_2, Q14160
[18] = target: T6, GRIP1_7, Q9Y3R0
[19] = target: T7, PCLO, Q9Y6V0
[20] = target: T8, LIN7A, O14910
[21] = target: GRID2IP_1, A4D2P6
[22] = target: T9, GRIP1_5, Q9Y3R0
[23] = target: HTRA1, Q92743
[24] = target: MAGI2_3, Q86UL8
[25] = target: T10, MPP7, Q5T2T1
[26] = target: DLG4_1, P78352
[27] = target: T11, PTPN13_1, Q12923

Chain of GRIP2_6, Q9C0E4 (Q9C0E4 648-740): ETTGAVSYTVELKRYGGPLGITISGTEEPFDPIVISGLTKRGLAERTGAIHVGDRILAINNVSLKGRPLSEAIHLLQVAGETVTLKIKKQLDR
Chain of FRMPD4, Q14CM0 (Q14CM0 67-160): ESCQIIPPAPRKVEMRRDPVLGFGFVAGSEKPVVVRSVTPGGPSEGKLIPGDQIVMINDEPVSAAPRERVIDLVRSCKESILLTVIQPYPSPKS
Chain of Inadl_3, Q8NI35 (Q8NI35 359-469): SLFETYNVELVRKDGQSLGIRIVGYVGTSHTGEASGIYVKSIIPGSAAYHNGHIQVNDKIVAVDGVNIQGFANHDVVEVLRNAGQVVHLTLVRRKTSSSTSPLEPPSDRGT
Chain of GRASP, Q7Z6J2 (Q7Z6J2 96-193): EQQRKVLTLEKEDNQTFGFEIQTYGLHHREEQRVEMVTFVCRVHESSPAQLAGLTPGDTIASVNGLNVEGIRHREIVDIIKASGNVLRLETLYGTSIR
Chain of MAGI1_1, Q96QZ7 (Q96QZ7 1-106): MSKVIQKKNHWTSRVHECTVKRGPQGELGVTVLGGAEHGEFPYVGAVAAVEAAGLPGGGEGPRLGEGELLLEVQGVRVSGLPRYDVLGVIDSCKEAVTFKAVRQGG
Chain of GRIP2_3, Q9C0E4 (Q9C0E4 238-339): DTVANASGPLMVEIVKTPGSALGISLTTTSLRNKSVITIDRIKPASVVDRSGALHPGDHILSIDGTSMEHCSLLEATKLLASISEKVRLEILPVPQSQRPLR
Chain of MAGI1_2, Q96QZ7 (Q96QZ7 456-580): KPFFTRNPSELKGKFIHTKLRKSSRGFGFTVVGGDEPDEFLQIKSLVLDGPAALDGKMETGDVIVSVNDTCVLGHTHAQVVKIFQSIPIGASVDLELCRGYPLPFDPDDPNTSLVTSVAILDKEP
Chain of Inadl_4, Q8NI35 (Q8NI35 547-651): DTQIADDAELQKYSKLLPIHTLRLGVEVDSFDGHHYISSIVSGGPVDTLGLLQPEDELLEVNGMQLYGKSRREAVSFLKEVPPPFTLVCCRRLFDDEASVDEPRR
Chain of SCRIB_2, Q14160 (Q14160 857-960): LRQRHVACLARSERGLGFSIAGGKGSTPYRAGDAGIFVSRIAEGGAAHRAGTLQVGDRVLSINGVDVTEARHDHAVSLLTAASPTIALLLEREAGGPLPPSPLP
Chain of MAST2, Q6P0Q8 (Q6P0Q8 1099-1202): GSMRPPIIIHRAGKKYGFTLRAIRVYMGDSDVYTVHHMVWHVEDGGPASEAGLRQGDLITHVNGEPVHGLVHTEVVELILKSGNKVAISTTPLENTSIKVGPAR
Chain of NHERF4_2, Q86UT5 (Q86UT5 220-308): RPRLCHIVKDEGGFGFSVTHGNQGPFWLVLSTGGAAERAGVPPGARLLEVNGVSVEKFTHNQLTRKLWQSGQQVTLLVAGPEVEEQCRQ
Chain of GRID2IP_1, A4D2P6 (A4D2P6 1-87): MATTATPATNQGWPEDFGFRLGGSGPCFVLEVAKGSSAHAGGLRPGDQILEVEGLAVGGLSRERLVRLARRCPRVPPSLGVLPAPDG
Chain of MAGI2_5, Q86UL8 (Q86UL8 915-1017): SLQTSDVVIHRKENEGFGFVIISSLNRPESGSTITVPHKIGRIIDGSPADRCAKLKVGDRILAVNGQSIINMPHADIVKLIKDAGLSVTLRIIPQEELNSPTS
Chain of DLG4_1, P78352 (P78352 62-152): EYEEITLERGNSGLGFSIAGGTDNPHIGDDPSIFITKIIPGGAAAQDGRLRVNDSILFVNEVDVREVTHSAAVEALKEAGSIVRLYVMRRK
Chain of HTRA1, Q92743 (Q92743 360-477): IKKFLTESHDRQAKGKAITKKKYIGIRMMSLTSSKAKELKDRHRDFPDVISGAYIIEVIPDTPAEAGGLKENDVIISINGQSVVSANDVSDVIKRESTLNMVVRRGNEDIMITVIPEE
Chain of MAGI2_3, Q86UL8 (Q86UL8 600-682): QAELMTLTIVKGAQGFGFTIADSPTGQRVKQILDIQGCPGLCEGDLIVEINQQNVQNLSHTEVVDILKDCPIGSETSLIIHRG

Row | Binder | pKd [1] | pKd [2] | pKd [3] | pKd [4] | pKd [5] | pKd [6] | pKd [7] | pKd [8] | pKd [9] | pKd [10] | pKd [11] | pKd [12] | pKd [13] | pKd [14] | pKd [15] | pKd [16] | pKd [17] | pKd [18] | pKd [19] | pKd [20] | further results
1 | NLSIEKETKL [ASNSD1, Q9NWL6] | below the threshold | below the threshold | 4.28 | below the threshold | below the threshold | below the threshold | below the threshold | below the threshold | 3.85 | below the threshold | 5.62 | below the threshold | below the threshold | below the threshold | 4.67 | below the threshold | below the threshold | below the threshold | below the threshold | below the threshold | pKd [21]: below the threshold; pKd [22]: below the threshold; pKd [23]: below the threshold; pKd [24]: below the threshold; pKd [25]: below the threshold; pKd [26]: below the threshold; pKd [27]: below the threshold
2 | TPPAAKKSRI [BAZ1A, Q9NRL2] | below the threshold | below the threshold | below the threshold | below the threshold | below the threshold | below the threshold | 3.58 | below the threshold | below the threshold | below the threshold | below the threshold | below the threshold | below the threshold | below the threshold | below the threshold | below the threshold | below the threshold | below the threshold | below the threshold | below the threshold | pKd [21]: below the threshold; pKd [22]: below the threshold; pKd [23]: below the threshold; pKd [24]: below the threshold; pKd [25]: below the threshold; pKd [26]: below the threshold; pKd [27]: below the threshold

More lines, main results first:

Row | pKd [1] | pKd [2] | pKd [3] | pKd [4] | pKd [5] | pKd [6] | pKd [7] | pKd [8] | pKd [9] | pKd [10] | pKd [11] | pKd [12] | pKd [13] | pKd [14] | pKd [15] | pKd [16] | pKd [17] | pKd [18] | pKd [19] | pKd [20] | Binder | further results
3 | below the threshold | below the threshold | 3.75 | below the threshold | 3.77 | 4.04 | 3.96 | below the threshold | 4.39 | below the threshold | 4.83 | below the threshold | below the threshold | 3.52 | below the threshold | 3.69 | 3.83 | below the threshold | below the threshold | 3.52 | EVNETDDTKM [KCNJ1, P48048] | pKd [21]: below the threshold; pKd [22]: below the threshold; pKd [23]: below the threshold; pKd [24]: 3.48; pKd [25]: below the threshold; pKd [26]: below the threshold; pKd [27]: below the threshold
4 | below the threshold | below the threshold | below the threshold | below the threshold | below the threshold | below the threshold | below the threshold | 4.19 | 3.72 | below the threshold | 5.07 | below the threshold | below the threshold | below the threshold | below the threshold | below the threshold | below the threshold | below the threshold | below the threshold | below the threshold | VNKSKLLTDV [KCNA1, Q09470] | pKd [21]: below the threshold; pKd [22]: below the threshold; pKd [23]: below the threshold; pKd [24]: below the threshold; pKd [25]: below the threshold; pKd [26]: 4.08; pKd [27]: below the threshold
5 | below the threshold | below the threshold | below the threshold | below the threshold | below the threshold | 4.13 | below the threshold | below the threshold | 4.6 | below the threshold | 5.56 | below the threshold | below the threshold | below the threshold | 4.19 | below the threshold | 4.27 | below the threshold | below the threshold | below the threshold | SKENVQETQI [LRRC4B, Q9NT99] | pKd [21]: below the threshold; pKd [22]: below the threshold; pKd [23]: below the threshold; pKd [24]: 3.63; pKd [25]: below the threshold; pKd [26]: 4.02; pKd [27]: below the threshold
